The supplement of paper PMC9112550, “Optimization of the antimicrobial peptide Bac7 by deep mutational scanning” (BMC Biology, 2022)

What follows are sequences tested on Escherichia coli TOP10 (assay: shrunken log2 fold change of peptide-encoding DNA abundance (4.5 h post-induction vs induction); higher = less antimicrobial activity (less host growth inhibition)). Conditions: time post-induction: 4.5 h; library: site-saturation at positions 5, 18, 19, 20.
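Note: peptides expressed intracellularly from a pBAD plasmid library in pooled LB shake-flask culture, induced with 0.3% L-arabinose, DNA abundance read by NGS, three biological replicates, DESeq2 with apeglm shrinkage.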

Sequence	shrunken log2 fold change
RRIRHRPPRLPRPRPRPNLLPRP	-0.13
RRIRHRPPRLPRPRPRPNMAPRP	-0.0808
RRIRHRPPRLPRPRPRPNMDPRP	-0.173
RRIRHRPPRLPRPRPRPNMTPRP	0.0729
RRIRHRPPRLPRPRPRPNNGPRP	0.0142
RRIRHRPPRLPRPRPRPNNIPRP	-1.2
RRIRHRPPRLPRPRPRPNPSPRP	-0.0145
RRIRHRPPRLPRPRPRPNTEPRP	-0.038
RRIRHRPPRLPRPRPRPNVNPRP	-0.555
RRIRHRPPRLPRPRPRPNVYPRP	-0.149
RRIRHRPPRLPRPRPRPNWDPRP	-0.332
RRIRHRPPRLPRPRPRPNWFPRP	-0.0203
RRIRHRPPRLPRPRPRPNWHPRP	-0.242
RRIRHRPPRLPRPRPRPNWIPRP	-0.19
RRIRHRPPRLPRPRPRPNWKPRP	-0.0172
RRIRHRPPRLPRPRPRPNWSPRP	-0.0165
RRIRHRPPRLPRPRPRPNWVPRP	-0.126
RRIRHRPPRLPRPRPRPNWYPRP	-0.928
RRIRHRPPRLPRPRPRPNYDPRP	-0.471
RRIRHRPPRLPRPRPRPPEFPRP	-0.0433
RRIRHRPPRLPRPRPRPPHNPRP	0.348
RRIRHRPPRLPRPRPRPPHRPRP	0.198

Sequence	shrunken log2 fold change
RRIRHRPPRLPRPRPRPPHSPRP	0.0314
RRIRHRPPRLPRPRPRPPIEPRP	-0.809
RRIRHRPPRLPRPRPRPPLSPRP	-0.0738
RRIRHRPPRLPRPRPRPPNIPRP	-0.157
RRIRHRPPRLPRPRPRPPNNPRP	-0.58
RRIRHRPPRLPRPRPRPPPAPRP	1.07
RRIRHRPPRLPRPRPRPPPNPRP	0.814
RRIRHRPPRLPRPRPRPPPYPRP	0.00808
RRIRHRPPRLPRPRPRPPQKPRP	0.0508
RRIRHRPPRLPRPRPRPPRMPRP	0.284
RRIRHRPPRLPRPRPRPPSAPRP	0.496
RRIRHRPPRLPRPRPRPPSEPRP	-0.0921
RRIRHRPPRLPRPRPRPPTQPRP	0.137
RRIRHRPPRLPRPRPRPPVGPRP	0.183
RRIRHRPPRLPRPRPRPPVPPRP	0.441
RRIRHRPPRLPRPRPRPPWEPRP	0.193
RRIRHRPPRLPRPRPRPPWHPRP	-0.0707
RRIRHRPPRLPRPRPRPPYCPRP	-0.0539
RRIRHRPPRLPRPRPRPPYFPRP	-0.366
RRIRHRPPRLPRPRPRPQCAPRP	0.191
RRIRHRPPRLPRPRPRPQFQPRP	-0.511
RRIRHRPPRLPRPRPRPQHTPRP	-0.386

Sequence	shrunken log2 fold change
RRIRHRPPRLPRPRPRPQISPRP	-0.0457
RRIRHRPPRLPRPRPRPQKSPRP	-0.138
RRIRHRPPRLPRPRPRPQKTPRP	0.00246
RRIRHRPPRLPRPRPRPQLRPRP	-0.343
RRIRHRPPRLPRPRPRPQNHPRP	-0.922
RRIRHRPPRLPRPRPRPQPAPRP	-0.0767
RRIRHRPPRLPRPRPRPQPHPRP	-0.0753
RRIRHRPPRLPRPRPRPQQHPRP	-0.384
RRIRHRPPRLPRPRPRPQREPRP	-0.0507
RRIRHRPPRLPRPRPRPQRIPRP	-0.00331
RRIRHRPPRLPRPRPRPQSCPRP	-0.0062
RRIRHRPPRLPRPRPRPQTQPRP	-0.145
RRIRHRPPRLPRPRPRPQYFPRP	-0.439
RRIRHRPPRLPRPRPRPQYHPRP	-0.972
RRIRHRPPRLPRPRPRPRAWPRP	0.0709
RRIRHRPPRLPRPRPRPRCKPRP	-0.053
RRIRHRPPRLPRPRPRPRCLPRP	-0.169
RRIRHRPPRLPRPRPRPRDEPRP	-0.0872
RRIRHRPPRLPRPRPRPRDKPRP	-0.132
RRIRHRPPRLPRPRPRPRDMPRP	0.137
RRIRHRPPRLPRPRPRPRDTPRP	0.123
RRIRHRPPRLPRPRPRPRETPRP	0.0714

Sequence	shrunken log2 fold change
RRIRHRPPRLPRPRPRPRFSPRP	-0.137
RRIRHRPPRLPRPRPRPRGDPRP	0.263
RRIRHRPPRLPRPRPRPRGKPRP	-0.241
RRIRHRPPRLPRPRPRPRHGPRP	-0.0477
RRIRHRPPRLPRPRPRPRIYPRP	-0.584
RRIRHRPPRLPRPRPRPRKGPRP	0.236
RRIRHRPPRLPRPRPRPRMGPRP	-0.00555
RRIRHRPPRLPRPRPRPRNKPRP	-0.2
RRIRHRPPRLPRPRPRPRNLPRP	0.0727
RRIRHRPPRLPRPRPRPRNPPRP	0.0812
RRIRHRPPRLPRPRPRPRPMPRP	-0.00237
RRIRHRPPRLPRPRPRPRPYPRP	0.0624
RRIRHRPPRLPRPRPRPRQLPRP	0.0862
RRIRHRPPRLPRPRPRPRQMPRP	-0.0208
RRIRHRPPRLPRPRPRPRQWPRP	0.408
RRIRHRPPRLPRPRPRPRTIPRP	-0.344
RRIRHRPPRLPRPRPRPRTMPRP	-0.0671
RRIRHRPPRLPRPRPRPRVSPRP	0.106
RRIRHRPPRLPRPRPRPRVVPRP	0.072
RRIRHRPPRLPRPRPRPRWDPRP	0.127
RRIRHRPPRLPRPRPRPRWPPRP	2.25
RRIRHRPPRLPRPRPRPRYFPRP	-0.439

Sequence	shrunken log2 fold change
RRIRHRPPRLPRPRPRPRYIPRP	-0.528
RRIRHRPPRLPRPRPRPRYQPRP	-1.18
RRIRHRPPRLPRPRPRPSADPRP	-0.428
RRIRHRPPRLPRPRPRPSCRPRP	-0.105
RRIRHRPPRLPRPRPRPSDAPRP	-0.293
RRIRHRPPRLPRPRPRPSDRPRP	-0.125
RRIRHRPPRLPRPRPRPSHKPRP	-0.718
RRIRHRPPRLPRPRPRPSHYPRP	0.288
RRIRHRPPRLPRPRPRPSIFPRP	-0.704
RRIRHRPPRLPRPRPRPSKLPRP	-0.448
RRIRHRPPRLPRPRPRPSKYPRP	-0.776
RRIRHRPPRLPRPRPRPSLPPRP	-0.328
RRIRHRPPRLPRPRPRPSNFPRP	-0.108
RRIRHRPPRLPRPRPRPSNLPRP	-0.289
RRIRHRPPRLPRPRPRPSNSPRP	-0.798
RRIRHRPPRLPRPRPRPSPMPRP	-0.418
RRIRHRPPRLPRPRPRPSPTPRP	0.0862
RRIRHRPPRLPRPRPRPSQPPRP	-0.184
RRIRHRPPRLPRPRPRPSRYPRP	-1
RRIRHRPPRLPRPRPRPSSFPRP	0.0395
RRIRHRPPRLPRPRPRPSTMPRP	-0.493
